Laboratory results from patent publication US20170002346A1.

Target: V5 epitope tagged Sag1p fragment fusion displayed on the cell surface of Pichia pastoris (vectors without insert, s1-V5-SAG1 constructs) (S. cerevisiae) (UniProt P20840)
Assay: flow cytometry, FITC anti-V5 staining of plate-grown SuperMan5 cells with GAP and UP promoter constructs (5 isolates each)

Chain of UniProt P20840 (P20840 331-650): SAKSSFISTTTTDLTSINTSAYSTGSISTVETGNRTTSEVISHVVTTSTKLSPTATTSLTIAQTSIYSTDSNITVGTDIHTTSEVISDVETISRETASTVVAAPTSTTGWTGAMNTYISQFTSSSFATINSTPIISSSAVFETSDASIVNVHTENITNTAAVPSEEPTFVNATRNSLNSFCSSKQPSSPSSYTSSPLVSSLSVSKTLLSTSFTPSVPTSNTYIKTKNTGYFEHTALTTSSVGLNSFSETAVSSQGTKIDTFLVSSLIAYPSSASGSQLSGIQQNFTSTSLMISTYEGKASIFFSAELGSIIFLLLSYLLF

**Q.** Which FITC signal against unlabeled cells (orders of magnitude) does the source give for “FITC-labeled anti-V5 (Abcam, V5-tag-antibody-FITC-ab1209)” here?
**A.** The FITC signal against unlabeled cells (orders of magnitude) was 2.
